Experimental data: US8445633B2, “Peptide having bindability with adiponectin, analysis method utilizing same peptide, and analysis device utilizing same peptide” (Sharp Kabushiki Kaisha, priority 2010, dated 2013)

Columns and labels:
adiponectin [1] = molecular target: T1, adiponectin (Homo sapiens, UniProt Q15848); assay: Bond between adiponectin immobilized onto a microplate and biotin-tagged peptide, enzyme immunoassay (HRP-tagged streptavidin, TMB); format: binding; settings: Example 2, FIG. 4; for absorbance at 450 nm: 1 mM peptide with C-terminal lysine tagged with biotin, compared with peptide of SEQ ID NO. 17 (Comparative Example 2); for bindability with adiponectin: conclusion from absorbance
T1 construct: purchased R&D Systems
T1 sequence (Q15848 19-244): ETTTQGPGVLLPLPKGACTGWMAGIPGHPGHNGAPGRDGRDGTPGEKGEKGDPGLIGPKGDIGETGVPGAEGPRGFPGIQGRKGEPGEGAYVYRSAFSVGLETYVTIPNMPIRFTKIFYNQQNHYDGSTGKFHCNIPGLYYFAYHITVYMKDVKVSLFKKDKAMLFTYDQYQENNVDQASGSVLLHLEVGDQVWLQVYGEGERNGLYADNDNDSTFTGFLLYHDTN
Experimental: As described below, the bond between adiponectin immobilized onto a microplate and each of peptides tagged with biotin (biotin-tagged peptide) was measured by using enzyme immunoassay.
First, peptides were prepared in such a manner that lysine was added to the C-terminal of each of peptides having amino-acid sequences represented by SEQ ID NOs: 14 and 15. Then, the amino group of a lysine side chain of each of the peptides thus prepared was tagged with biotin so that biotin-tagged peptides were prepared.
5 μg/mL adiponectin (R&D Systems) prepared with PBS was dispensed to wells of a 96-well microplate in an amount of 100 μL per well. Then, the peptides were incubated for 1 hour at 37° C. Adiponectin was thus immobilized in the wells. In order to inhibit nonspecific binding, a blocking solution (Protein-Free Blocking Buffer, PIERCE) was then added to the wells in an amount of 300 μL per well. Then, the peptides were incubated for 2 hours at room temperature. Then, the wells were washed three times with PBST (PBS containing 0.1% (v/v) Tween 20). Then, 1 mM biotin-tagged peptide was added to the wells in an amount of 100 μL per well. Then, the peptides were incubated for 1 hour at room temperature. Then, the wells were washed with PBST again.
Then, HRP-tagged streptavidin (R&D Systems) diluted with 200 parts of the blocking solution (Protein-Free Blocking Buffer, PIERCE) was added to the well in an amount of 100 μL per well. Then, the streptavidin was incubated for 1 hour at room temperature. Then, the wells were washed with PBST. Then, TMB (tetramethylbenzidine) was added to the wells in an amount of 100 μL per well so that they react with each other for 20 minutes. Then, the reaction was stopped by adding 1 M of HCL to the wells in an amount of 100 μL per well. Then, an absorbance at 450 nm was measured by use of a microplate reader (Bio-Rad).
The bond between a peptide having the amino-acid sequence represented by SEQ ID NO. 17 and adiponectin as in Example 2.

adiponectin [2] = molecular target: T1, adiponectin; assay: Bond between peptide spot-synthesized on cellulose membrane and adiponectin, sandwich enzyme immunoassay (HRP-tagged anti-adiponectin antibody, Amplex Red fluorescence); format: binding; settings: Example 3, FIG. 5; for bindability with adiponectin: conclusion from fluorescent intensity; for fluorescent intensity in the synthesis spot: peptides with conservative substitution compared with parent peptides SEQ ID NOs: 8 and 9
Description: In order to identify an amino-acid sequence having bindability with adiponectin, a peptide was synthesized on a cellulose membrane by use of a peptide synthesis device (Model MultiPep RS (Intavis AG)) utilizing a Fmoc-based peptide spot synthesis.
Immobilized on the cellulose membrane was polyethylene glycol having a terminal modified with an amino group. An Fmoc amino acid was bound with the amino group by using DIC (diisopropylcarbodiimide)/HOBt (hydroxybenzotriazole). After that, Fmoc was removed.
The cycle of the removal of Fmoc and the subsequent binding was repeated to synthesis a peptide. Then, N-terminals and side chains of all the peptides were deprotected. Thereby, peptides consisting of amino-acid sequences represented by SEQ. ID NOs: 1 to 15 were obtained.
The sandwich technique which is one of enzyme immunoassays was performed to measure the bond between each of the peptides thus synthesized and adiponectin.
First, a cellulose membrane was soaked in ethanol. Then, the cellulose membrane was continuously washed with phosphate buffered saline (PBS) (pH 7.4) so that ethanol contained in the cellulose membrane was replaced with PBS. In order that nonspecific binding is inhibited, the cellulose membrane was incubated overnight in a blocking solution (PBS containing 1% milk powder).
Then, the cellulose membrane was incubated for 1 hour in a blocking solution (PBS containing 1% milk powder) which contains 0.25 μg/mL human adiponectin (R&D Systems). Then, the cellulose membrane was washed with PBST (PBS containing 0.1% (v/v) Tween 20). Then, the cellulose membrane was incubated for 1 hour in a blocking solution containing […] anti-human adiponectin antibody (R&D Systems) which is tagged with HRP, and then washed with PBST five times.
After that, 100 μM fluorescent substrate (Amplex Red (Invitrogen)) containing 1 mM hydrogen peroxide was added to the cellulose membrane, and then they react with each other for 10 minutes. A fluorescent intensity in a synthesis spot was measured in such a manner that an […] wavelength of 595 nm of fluorescence from the fluorescent substrate was measured by a fluorescence imager (GE Healthcare) by exciting, with light of 540 nm, the fluorescent substrate in the synthesis spot. A bond strength of the peptide was worked out from the fluorescent intensity in the synthesis spot.
A peptide consist of the amino-acid sequence represented by SEQ ID NO. 16 was synthesized as in Example 1. Then, the bond between the synthesized peptide and adiponectin was measured as in Example 1.
Then, the bond between each of the synthesized peptides and adiponectin was measured as in Example 1.

Substance | absorbance at 450 nm (adiponectin [1]) | bindability with adiponectin (adiponectin [1]) | bindability with adiponectin (adiponectin [2]) | fluorescent intensity in the synthesis spot (adiponectin [2])
14 (ITPIHWVK; Adiponectin binding peptide) [compound 14] | significantly higher in absorbance | had the bindability with adiponectin |  | 
15 (ILLPLRIN; Adiponectin binding peptide) [compound 15] | significantly higher in absorbance | had the bindability with adiponectin |  | 
19 (KFATPKHR; Adiponectin binding peptide) [compound 19] |  |  | had the bindability with adiponectin | close to those of the peptides having the amino-acid sequences represented by SEQ ID NOs: 8 and 9
18 (MGSFVPY; Adiponectin binding peptide) [compound 18] |  |  | had the bindability with adiponectin | close to those of the peptides having the amino-acid sequences represented by SEQ ID NOs: 8 and 9
